Data reported in paper PMC10702828.

Key:
[1] = target: Rix1 (Chaetomium thermophilum (endogenous in mycelium)); experiment: cryo-EM structure; pre-60S particles from the Flag eluates of PT-Rsa4 E117D with Nop7-Flag, Rix1-Flag or Flag-Las1
[2] = target: Rix1 (Chaetomium thermophilum (endogenous in mycelium)); experiment: cryo-EM structure; isolated rixosome from the PTF-Las1 eluate; Rix1 complex and Las1-Grc3 processed individually, whole rixosome at low resolution
[3] = target: polynucleotide kinase Grc3 (Chaetomium thermophilum (endogenous in mycelium)); experiment: as above
[4] = target: Ipi3 (Chaetomium thermophilum (endogenous in mycelium)); experiment: cryo-EM structure; pre-60S particles from the Flag eluates of PT-Rsa4 E117D with Nop7-Flag, Rix1-Flag or Flag-Las1
[5] = target: Ipi3 (Chaetomium thermophilum (endogenous in mycelium)); experiment: cryo-EM structure; isolated rixosome from the PTF-Las1 eluate; Rix1 complex and Las1-Grc3 processed individually, whole rixosome at low resolution
[6] = target: wild‐type ct PTF‐Las1 (Chaetomium thermophilum); experiment: as above

Rix1 (natural protein) showed a stoichiometry N [1] of 2 copies and a stoichiometry N [2] of 2 copies.

For polynucleotide kinase Grc3 (enzyme), the stoichiometry N [3] was 2 copies.

With Ipi3 (natural protein) the stoichiometry N [4] was 2 copies and the stoichiometry N [5] was 2 copies.

wild‐type ct PTF‐Las1 (enzyme) showed a stoichiometry N [6] of 2 copies.
